From publication PMC7525151, “Fumarase From Cyanidioschyzon merolae Stably Shows High Catalytic Activity for Fumarate Hydration Under High Temperature Conditions” (Frontiers in Microbiology, 2020)

Tested on: O=C(O)C[C@H](O)C(=O)O
Experiment: purified protein
Conditions: L-malate dehydration
[1] = 100 mM Tris-HCl pH 7.5, 50 °C, pH 7.5
[2] = 100 mM Tris-HCl pH 8.5, 52 °C, pH 8.5

Chain of CmFUM (Cyanidioschyzon merolae strain 10D) (chain, as listed by the source): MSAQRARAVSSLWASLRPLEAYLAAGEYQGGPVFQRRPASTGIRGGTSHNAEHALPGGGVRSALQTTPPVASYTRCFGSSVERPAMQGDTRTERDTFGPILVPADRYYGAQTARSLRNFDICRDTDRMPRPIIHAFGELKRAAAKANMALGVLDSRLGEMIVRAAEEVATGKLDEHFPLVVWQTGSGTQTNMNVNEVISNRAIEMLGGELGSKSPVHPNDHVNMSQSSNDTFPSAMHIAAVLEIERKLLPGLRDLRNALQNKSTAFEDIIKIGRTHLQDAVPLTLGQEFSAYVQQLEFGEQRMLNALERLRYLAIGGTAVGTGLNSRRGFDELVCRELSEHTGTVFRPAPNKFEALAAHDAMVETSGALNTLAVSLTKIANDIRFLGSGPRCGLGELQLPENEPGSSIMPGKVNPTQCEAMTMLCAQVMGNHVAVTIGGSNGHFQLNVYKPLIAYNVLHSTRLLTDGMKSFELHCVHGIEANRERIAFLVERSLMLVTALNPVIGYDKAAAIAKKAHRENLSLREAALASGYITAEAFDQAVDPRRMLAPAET
Chain of TeFum (Thermosynechococcus vestitus BP-1) (chain, as listed by the source): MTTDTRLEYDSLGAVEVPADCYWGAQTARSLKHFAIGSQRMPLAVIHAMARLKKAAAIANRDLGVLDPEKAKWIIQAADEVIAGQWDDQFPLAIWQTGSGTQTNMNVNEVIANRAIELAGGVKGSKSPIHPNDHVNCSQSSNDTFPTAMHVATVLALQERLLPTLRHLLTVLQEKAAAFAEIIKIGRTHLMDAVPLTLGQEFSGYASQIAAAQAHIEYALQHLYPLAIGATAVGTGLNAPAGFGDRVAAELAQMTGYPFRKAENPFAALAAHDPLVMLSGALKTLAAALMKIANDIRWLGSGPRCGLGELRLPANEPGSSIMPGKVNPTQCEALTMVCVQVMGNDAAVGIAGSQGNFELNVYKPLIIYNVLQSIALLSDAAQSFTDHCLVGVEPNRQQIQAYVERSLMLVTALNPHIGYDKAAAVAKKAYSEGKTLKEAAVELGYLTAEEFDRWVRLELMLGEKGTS

Substance | Km [1] | kcat [1] | kcat/Km [1] | Km [2] | kcat [2] | kcat/Km [2]
TeFum (Thermosynechococcus vestitus BP-1) | 200 ± 10 µM | 15 s⁻¹ | 76000 M⁻¹ s⁻¹ | – | – | –
CmFUM (Cyanidioschyzon merolae strain 10D) | – | – | – | 1490 ± 120 µM | 244 s⁻¹ | 164000 M⁻¹ s⁻¹
